Assay results reported in publication PMC3154878.

Experiment: cycloheximide chase, Western blot, Hepa1A
Settings: glycan lost; control: wild type

B1: ERManI: ERManIO-def (protein)
parent chain: MAACEGRRSGALGSSQSDFLTPPVGGAPWAVATTVVMYPPPPPPPHRDFISVTLSFGENYDNSKSWRRRSCWRKWKQLSRLQRNMILFLLAFLLFCGLLFYINLADHWKALAFRLEEEQKMRPEIAGLKPANPPVLPAPQKADTDPENLPEISSQKTQRHIQRGPPHLQIRPPSQDLKDGTQEEATKRQEAPVDPRPEGDPQRTVISWRGAVIEPEQGTELPSRRAEVPTKPPLPPARTQGTPVHLNYRQKGVIDVFLHAWKGYRKFAWGHDELKPVSRSFSEWFGLGLTLIDALDTMWILGLRKEFEEARKWVSKKLHFEKDVDVNLFESTIRILGGLLSAYHLSGDSLFLRKAEDFGNRLMPAFRTPSKIPYSDVNIGTGVAHPPRWTSDSTVAEVTSIQLEFRELSRLTGDKKFQEAVEKVTQHIHGLSGKKDGLVPMFINTHSGLFTHLGVFTLGARADSYYEYLLKQWIQGGKQETQLLEDYVEAIEGVRTHLLRHSEPSKLTFVGELAHGRFSAKMDHLVCFLPGTLALGVYHGLPASHMELAQELMETCYQMNRQMETGLSPEIVHFNLYPQPGRRDVEVKPADRHNLLRPETVESLFYLYRVTGDRKYQDWGWEILQSFSRFTRVPSGGYSSINNVQDPQKPEPRDKMESFFLGETLKYLFLLFSDDPNLLSLDAYVFNTEAHPLPIWTPA
In the case of B1, the degradation_or_half_life is reported as “no change”.
